The values below come from patent US12331110B2, “Monoclonal antibodies against endotrophin and the use thereof” (THE BOARD OF REGENTS OF THE UNIVERSITY OF TEXAS SYSTEM, priority 2018, dated 2025).

The test system of one test is MCF7 breast cancer cells. The test is described as follows: MCF7 cisplatin/endotrophin cell survival (MTS) neutralization assay. The format is cell-based, human. On the procedure:
FIGS. 3A-D. Generation and screening of anti-human endotrophin. (FIG. 3A) MCF7 breast cancer cells (20,000 cells) were plated into a 96-well plate. Cells were then treated with 10 μm cisplatin, 10 μm cisplatin/100 ng/mL endotrophin, and 10 μm cisplatin/100 ng/mL endotrophin/10 μg/mL ETPmAb4 for 24 hr. Cell survival was measured using a CellTiter One Solution Cell Proliferation Assay. Statistical significance of the curve fit parameters was tested using the extra sum of squares F test with P<0.05 considered significant. Goodness of curve fit is described using r2. Mean±SEM, n=3. (FIG. 3B) ETP transfected MCF7 cells (100,000 cells) were plated into a 24-well plate with 500 μL media. Then 4 μL of supernatant was loaded for Western blotting. It is estimated that approximately 1 ng of ETP was loaded, compared with the standard ETP (2 ng band). The concentration yields approximately 0.052 pg secreted ETP/hr/cell. […] ETP expression was determined by qRT-PCR and normalized to GAPDH. […] Migrated cells were counted after a 2 hr incubation. In all cases, data was represented as mean±SD, and statistical significance (*** p<0.0001) was calculated using an unpaired Student's t-test.
MTS assay screening endotrophin monoclonal antibodies. […] Cell survival was measured using a CellTiter One Solution Cell Proliferation Assay. […] The plate was then read at 490 nm using a Sunrise microplate reader (TECAN). […]

Test [1] deals with T1, recombinant endotrophin protein (Homo sapiens, UniProt P12111).
T1 construct: the latter consisting of 77 amino acids at the carboxy-terminal of the COL6α3 chain; CD33 signal peptide (N, cleaved yes); His-tag with EK-cleavage site (N, cleaved yes); purchased Sino Biological, Beijing, China; host or cells: HEK293
Briefly: Affinity measurement with BLI (Octet RED96). To be noted: Octet (96-Red), 1:1 binding model. On the procedure:
FIGS. 12A-B. Kinetic sensorgrams for ETP-mAb4 (FIG. 12A) and each of the humanized antibodies (FIG. 12B). […]
For antibody affinity measurement, antibody (30 μg/mL) was loaded onto the protein A biosensors for 4 min. Following a short baseline in kinetics buffer, the loaded biosensors were exposed to a series of recombinant endotrophin protein at 0.1-200 nM and background subtraction was used to correct for sensor drifting. All experiments were performed with shaking at 1,000 rpm. Background wavelength shifts were measured from reference biosensors that were loaded only with antibody. Kinetic sensorgrams for each antibody are shown in FIGS. 12A&B. ForteBio's data analysis software was used to fit the data to a 1:1 binding model to extract an association rate and dissociation rate. The Kd was calculated using the ratio of koff/kon and the estimated values of […] for endotrophin ETP-mAb4 and 4 humanized ETP-hMab4 antibodies are listed in Table 4.
(BLI is a label-free optical method that tracks binding on a fibre tip over time.)

T1 sequence (P12111 3101-3177): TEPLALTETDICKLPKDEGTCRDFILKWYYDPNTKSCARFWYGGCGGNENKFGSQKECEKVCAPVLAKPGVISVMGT

B1: ETP-mAb4: rabbit monoclonal anti-human endotrophin antibody selected for further study; VH SEQ ID NO: 125, VL SEQ ID NO: 126 (antibody, V domains shown)
VH: SSRVKESGGDLVKPGASLTLTCKASGFSFSSGYYICWVRQAPGKGLEWIACIYGGNNNPYYANWVNGRFTTSKTSSTTVTLQMTNLTGADTATYFCARKDINIGGAYELWGPGTLVTISS
VL: ELVMTQTPASVSEPVGGTVTINCQASQSISSSYLSWYQQKPGQPPKLLIYKASTLASGVPSRFKGSGSGTQFSLTISDLECADAATYYCQYSDWANSYGNAFGGGTEVVVK
As to B1, in the test with MCF7 breast cancer cells (10 μm cisplatin, 100 ng/mL endotrophin, 10 μg/mL antibody, 24 hr), the “neutralization of endotrophin-mediated MCF-7 cell survival” value was “completely neutralize”. Also, the “restoration of cisplatinum susceptibility of endotrophin-exposed MCF-7 cells” value with MCF7 breast cancer cells (cisplatin plus endotrophin) is recorded as “forced the cells to become susceptible to cisplatinum, in a dose-dependent manner”. Besides, in test [1], the kdis is recorded as 2.49 E−04 1/s and the kon is 1.42 E+05 1/Ms.
